In publication PMC2504300:

T1: Grp (glutamine receptor protein) (Sulfolobus tokodaii strain 7, UniProt F9VNT4 1-150)
T1 sequence: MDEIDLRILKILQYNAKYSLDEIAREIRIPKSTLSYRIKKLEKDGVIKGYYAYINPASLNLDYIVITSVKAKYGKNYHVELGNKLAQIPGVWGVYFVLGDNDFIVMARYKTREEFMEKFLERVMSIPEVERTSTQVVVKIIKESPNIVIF

T2: Grp Y77A (Sulfolobus tokodaii strain 7, UniProt F9VNT4 1-150, Y77A)
T2 sequence: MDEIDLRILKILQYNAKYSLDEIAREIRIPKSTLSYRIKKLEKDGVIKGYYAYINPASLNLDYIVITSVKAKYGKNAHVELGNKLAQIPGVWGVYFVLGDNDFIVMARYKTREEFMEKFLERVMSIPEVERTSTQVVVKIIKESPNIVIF

T3: Grp S32A (Sulfolobus tokodaii strain 7, UniProt F9VNT4 1-150, S32A)
T3 sequence: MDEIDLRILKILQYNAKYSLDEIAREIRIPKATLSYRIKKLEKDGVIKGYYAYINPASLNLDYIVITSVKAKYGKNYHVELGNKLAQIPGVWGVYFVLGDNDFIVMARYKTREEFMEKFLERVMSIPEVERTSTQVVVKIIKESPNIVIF

B1: 18-bp grp promoter fragment (dsDNA)
DNA 1: ATATTTTTGTTTATAATA
DNA 2: TATTATAAACAAAAATAT
B2: 111-bp grp promoter (dsDNA)
DNA 1: CGTATCTTCCAAAGATTATAAGCGATTTTTTGTAAGTCTTTTTTTATTATAAGTGTTGATTAGATATAATTCAAAGTAAAGGCTTATATTTTTGTTTATAATATACAGTCT
DNA 2: AGACTGTATATTATAAACAAAAATATAAGCCTTTACTTTGAATTATATCTAATCAACACTTATAATAAAAAAAGACTTACAAAAAATCGCTTATAATCTTTGGAAGATACG

Key:
Test in all cases: filter binding
[1] = biological target: T1, Grp (glutamine receptor protein)
Grp Y77A = biological target: T2, Grp Y77A
Grp S32A = biological target: T3, Grp S32A
[2] = biological target: T1, Grp (glutamine receptor protein); remark: listed apart in the source

Binder | Kd [1] | binding result (Grp Y77A) | binding signal (Grp S32A) | binding result [2]
B1 | 188 ± 1 nM | no binding | ~5 fold lower binding than wild type | 
B2 |  |  |  | binds
